Source: patent US20110263454A1, “Methods of Identifying Functional Characteristics of Promoters, Transcription Modifying Proteins and Transcription Modulating Agents” (Salk Institute for Biological Studies, priority 2008, published 2011)

B1: PR: Progesterone Receptor (NR3C3), cDNA driver (protein, UniProt P06401 1-933, looked up)
Progesterone receptor: MTELKAKGPRAPHVAGGPPSPEVGSPLLCRPAAGPFPGSQTSDTLPEVSAIPISLDGLLFPRPCQGQDPSDEKTQDQQSLSDVEGAYSRAEATRGAGGSSSSPPEKDSGLLDSVLDTLLAPSGPGQSQPSPPACEVTSSWCLFGPELPEDPPAAPATQRVLSPLMSRSGCKVGDSSGTAAAHKVLPRGLSPARQLLLPASESPHWSGAPVKPSPQAAAVEVEEEDGSESEESAGPLLKGKPRALGGAAAGGGAAAVPPGAAAGGVALVPKEDSRFSAPRVALVEQDAPMAPGRSPLATTVMDFIHVPILPLNHALLAARTRQLLEDESYDGGAGAASAFAPPRSSPCASSTPVAVGDFPDCAYPPDAEPKDDAYPLYSDFQPPALKIKEEEEGAEASARSPRSYLVAGANPAAFPDFPLGPPPPLPPRATPSRPGEAAVTAAPASASVSSASSSGSTLECILYKAEGAPPQQGPFAPPPCKAPGASGCLLPRDGLPSTSASAAAAGAAPALYPALGLNGLPQLGYQAAVLKEGLPQVYPPYLNYLRPDSEASQSPQYSFESLPQKICLICGDEASGCHYGVLTCGSCKVFFKRAMEGQHNYLCAGRNDCIVDKIRRKNCPACRLRKCCQAGMVLGGRKFKKFNKVRVVRALDAVALPQPVGVPNESQALSQRFTFSPGQDIQLIPPLINLLMSIEPDVIYAGHDNTKPDTSSSLLTSLNQLGERQLLSVVKWSKSLPGFRNLHIDDQITLIQYSWMSLMVFGLGWRSYKHVSGQMLYFAPDLILNEQRMKESSFYSLCLTMWQIPQEFVKLQVSQEEFLCMKVLLLLNTIPLEGLRSQTQFEEMRSSYIRELIKAIGLRQKGVVSSSQRFYQLTKLLDNLHDLVKQLHLYCLNTFIQSRALSVEFPEMMSEVIAAQLPKILAGMVKPLLFHKK
B2: NR4a2: NR4a2 (NR4A2; NURR1), nuclear hormone receptor cDNA driver (protein, UniProt P43354 1-598, looked up)
Nuclear receptor subfamily 4 …: MPCVQAQYGSSPQGASPASQSYSYHSSGEYSSDFLTPEFVKFSMDLTNTEITATTSLPSFSTFMDNYSTGYDVKPPCLYQMPLSGQQSSIKVEDIQMHNYQQHSHLPPQSEEMMPHSGSVYYKPSSPPTPTTPGFQVQHSPMWDDPGSLHNFHQNYVATTHMIEQRKTPVSRLSLFSFKQSPPGTPVSSCQMRFDGPLHVPMNPEPAGSHHVVDGQTFAVPNPIRKPASMGFPGLQIGHASQLLDTQVPSPPSRGSPSNEGLCAVCGDNAACQHYGVRTCEGCKGFFKRTVQKNAKYVCLANKNCPVDKRRRNRCQYCRFQKCLAVGMVKEVVRTDSLKGRRGRLPSKPKSPQEPSPPSPPVSLISALVRAHVDSNPAMTSLDYSRFQANPDYQMSGDDTQHIQQFYDLLTGSMEIIRGWAEKIPGFADLPKADQDLLFESAFLELFVLRLAYRSNPVEGKLIFCNGVVLHRLQCVRGFGEWIDSIVEFSSNLQNMNIDISAFSCIAALAMVTERHGLKEPKRVEELQNKIVNCLKDHVTFNNGGLNRPNYLSKLLGKLPELRTLCTQGLQRIFYLKLEDLVPPPAIIDKLFLDTLPF
B3: hMR: Mineralocorticoid Receptor (NR3C2, MR), cDNA driver (protein, UniProt P08235 1-984, looked up)
Mineralocorticoid receptor: METKGYHSLPEGLDMERRWGQVSQAVERSSLGPTERTDENNYMEIVNVSCVSGAIPNNSTQGSSKEKQELLPCLQQDNNRPGILTSDIKTELESKELSATVAESMGLYMDSVRDADYSYEQQNQQGSMSPAKIYQNVEQLVKFYKGNGHRPSTLSCVNTPLRSFMSDSGSSVNGGVMRAVVKSPIMCHEKSPSVCSPLNMTSSVCSPAGINSVSSTTASFGSFPVHSPITQGTPLTCSPNVENRGSRSHSPAHASNVGSPLSSPLSSMKSSISSPPSHCSVKSPVSSPNNVTLRSSVSSPANINNSRCSVSSPSNTNNRSTLSSPAASTVGSICSPVNNAFSYTASGTSAGSSTLRDVVPSPDTQEKGAQEVPFPKTEEVESAISNGVTGQLNIVQYIKPEPDGAFSSSCLGGNSKINSDSSFSVPIKQESTKHSCSGTSFKGNPTVNPFPFMDGSYFSFMDDKDYYSLSGILGPPVPGFDGNCEGSGFPVGIKQEPDDGSYYPEASIPSSAIVGVNSGGQSFHYRIGAQGTISLSRSARDQSFQHLSSFPPVNTLVESWKSHGDLSSRRSDGYPVLEYIPENVSSSTLRSVSTGSSRPSKICLVCGDEASGCHYGVVTCGSCKVFFKRAVEGQHNYLCAGRNDCIIDKIRRKNCPACRLQKCLQAGMNLGARKSKKLGKLKGIHEEQPQQQQPPPPPPPPQSPEEGTTYIAPAKEPSVNTALVPQLSTISRALTPSPVMVLENIEPEIVYAGYDSSKPDTAENLLSTLNRLAGKQMIQVVKWAKVLPGFKNLPLEDQITLIQYSWMCLSSFALSWRSYKHTNSQFLYFAPDLVFNEEKMHQSAMYELCQGMHQISLQFVRLQLTFEEYTIMKVLLLLSTIPKDGLKSQAAFEEMRTNYIKELRKMVTKCPNNSGQSWQRFYQLTKLLDSMHDLVSDLLEFCFYTFRESHALKVEFPAMLVEIISDQLPKVESGNAKPLYFHRK
B4: NR4a3: NR4a3 (NR4A3; NOR1), nuclear hormone receptor cDNA driver (protein, UniProt Q92570 1-626, looked up)
Nuclear receptor subfamily 4 …: MPCVQAQYSPSPPGSSYAAQTYSSEYTTEIMNPDYTKLTMDLGSTEITATATTSLPSISTFVEGYSSNYELKPSCVYQMQRPLIKVEEGRAPSYHHHHHHHHHHHHHHQQQHQQPSIPPASSPEDEVLPSTSMYFKQSPPSTPTTPAFPPQAGALWDEALPSAPGCIAPGPLLDPPMKAVPTVAGARFPLFHFKPSPPHPPAPSPAGGHHLGYDPTAAAALSLPLGAAAAAGSQAAALESHPYGLPLAKRAAPLAFPPLGLTPSPTASSLLGESPSLPSPPSRSSSSGEGTCAVCGDNAACQHYGVRTCEGCKGFFKRTVQKNAKYVCLANKNCPVDKRRRNRCQYCRFQKCLSVGMVKEVVRTDSLKGRRGRLPSKPKSPLQQEPSQPSPPSPPICMMNALVRALTDSTPRDLDYSRYCPTDQAAAGTDAEHVQQFYNLLTASIDVSRSWAEKIPGFTDLPKEDQTLLIESAFLELFVLRLSIRSNTAEDKFVFCNGLVLHRLQCLRGFGEWLDSIKDFSLNLQSLNLDIQALACLSALSMITERHGLKEPKRVEELCNKITSSLKDHQSKGQALEPTESKVLGALVELRKICTLGLQRIFYLKLEDLVSPPSIIDKLFLDTLPF

The molecules below were run on mCAR promoter (assay: NHR-promoter luciferase screen, mCAR promoter). Settings: mCAR promoter-luciferase, CV-1 cells, NHR +/- ligand, control = 1.00.
Assay type: cell-based, mouse
Outline: (§1)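 CV-1 cells were co-transfected with 50 ng NHR (homodimer or NHR/RXR heterodimer), 100 ng promoter-luciferase construct and 50 ng LacZ. Luciferase was normalized to LacZ and to a no-NHR/no-ligand control.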

First: B1
Second: B2
The “luciferase activity normalized to lacZ activity and to a control, mCAR” value of the first is higher: 0.98 for the first, 0.57 for the second.

Going from B3 to B4, the “luciferase activity normalized to lacZ activity and to a control, mCAR” value falls from 0.77 to 0.57.

Same assay, conditions: mCAR promoter; HR/ligand component

Going from B1 to B2, the “Luc. act., normalized to lacZ” value falls from 37.53 to 21.74.

Compared with B3, B4 is lower in “Luc. act., normalized to lacZ” value: 29.38 for the first, 21.58 for the second.

First: B1
Second: B2
The “Normalized Luc. act., normalized to control” value of the first is higher: 1.0 for the first, 0.6 for the second.

Compared with B3, B4 is lower in “Normalized Luc. act., normalized to control” value: 0.8 for the first, 0.6 for the second.

What follows are molecules tested on mUCP2 promoter (assay: NHR-promoter luciferase screen, mUCP2 promoter). Settings: mUCP2 promoter reporter; co-transfected HR, with or without its ligand.
Assay type: cell-based, mouse
Outline: as §1

Going from B1 to B2, the “Luc. act., normalized to lacZ” value falls from 178.8 to 129.8.

Going from B3 to B4, the “Luc. act., normalized to lacZ” value rises from 58.8 to 150.1.

Same assay, conditions: mUCP2 promoter reporter; co-transfected HR, with or without its ligand; relative to control

Compared with B1, B2 is lower in “Normalized Luc. act., normalized to control” value: 1.6 for the first, 1.2 for the second.

Going from B3 to B4, the “Normalized Luc. act., normalized to control” value rises from 0.5 to 1.4.

Same assay, conditions: mUCP2 promoter-luciferase, CV-1 cells, NHR +/- ligand, control = 1.00

First: B1
Second: B2
The “luciferase activity normalized to lacZ activity and to a control, mUCP2” value of the first is higher: 1.63 for the first, 1.18 for the second.

Going from B3 to B4, the “luciferase activity normalized to lacZ activity and to a control, mUCP2” value rises from 0.54 to 1.37.

What follows are molecules tested on mLeptin promoter (assay: NHR-promoter luciferase screen, mLeptin promoter). Settings: Table 7; mLeptin.
Assay type: cell-based, mouse
Outline: as §1

First: B1
Second: B2
The “Luc. act., normalized to lacZ” value of the first is higher: 2.2 for the first, 2.1 for the second.

Going from B3 to B4, the “Luc. act., normalized to lacZ” value rises from 1.7 to 1.8.

Going from B1 to B2, the “Normalized Luc. act., normalized to control” value falls from 0.8 to 0.7.

B3 and B4 are the same in “Normalized Luc. act., normalized to control” value: 0.6 for the first, 0.6 for the second.

Same assay, conditions: Table 6d; luciferase activity relative to control (control = 1.00)

Going from B1 to B2, the “Results of assays of transcription factor (+/- ligand) with mLeptin” value falls from 0.76 to 0.71.

Compared with B3, B4 is higher in “Results of assays of transcription factor (+/- ligand) with mLeptin” value: 0.57 for the first, 0.62 for the second.

These molecules were tested on hCYP3A4 promoter (assay: NHR-promoter luciferase screen, hCYP3A4 promoter). Settings: CYP3A4 promoter; HR/ligand component.
Assay type: cell-based, human
Outline: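 CV-1 cells co-transfected with NHR homodimer or NHR/RXR heterodimer (pcDNA3.1, C-terminal V5H6 tag), promoter-luciferase construct and LacZ transfection control. Orphan receptors screened without ligand. Luciferase normalized to LacZ and to no-NHR/no-ligand control.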

First: B1
Second: B2
The “Luc. act., normalized to lacZ” value of the first is higher: 6.5 for the first, 3.5 for the second.

Compared with B3, B4 is higher in “Luc. act., normalized to lacZ” value: 2.6 for the first, 4.2 for the second.

Compared with B1, B2 is lower in “Normalized Luc. act., normalized to control” value: 1.5 for the first, 0.8 for the second.

Going from B3 to B4, the “Normalized Luc. act., normalized to control” value rises from 0.6 to 0.9.

Same assay, conditions: transcription factor +/- ligand; control = 1.00

First: B1
Second: B2
The “hCYP3A4 promoter reporter activity” value of the first is higher: 1.47 for the first, 0.79 for the second.

Compared with B3, B4 is higher in “hCYP3A4 promoter reporter activity” value: 0.58 for the first, 0.93 for the second.

The molecules below were run on hIFNg promoter (assay: NHR-promoter luciferase screen, hIFNg promoter). Settings: IFNg promoter; HR component without or with ligand.
Assay type: cell-based, human
Outline: as §1

Compared with B1, B2 is higher in “Luc. act., normalized to lacZ” value: 22.6 for the first, 24.3 for the second.

Going from B3 to B4, the “Luc. act., normalized to lacZ” value rises from 10.4 to 16.4.

Compared with B1, B2 is higher in “Normalized Luc. act., normalized to control” value: 1.4 for the first, 1.5 for the second.

Compared with B3, B4 is higher in “Normalized Luc. act., normalized to control” value: 0.7 for the first, 1.0 for the second.

Same assay, conditions: transcription factor +/- ligand; control = 1.00

Going from B1 to B2, the “hIFNg promoter reporter activity” value rises from 1.42 to 1.53.

Compared with B3, B4 is higher in “hIFNg promoter reporter activity” value: 0.65 for the first, 1.03 for the second.

These molecules were tested on hPPARg1 promoter (assay: NHR-promoter luciferase screen, hPPARg1 promoter). Settings: PPARG1 promoter; hormone receptor with or without its ligand.
Assay type: cell-based, human
Outline: as §1

First: B1
Second: B2
The “Luc. act., normalized to lacZ” value of the first is higher: 81.3 for the first, 58.8 for the second.

First: B3
Second: B4
The “Luc. act., normalized to lacZ” value of the first is lower: 56.4 for the first, 61.0 for the second.

Same assay, conditions: PPARG1 promoter; hormone receptor with or without its ligand; relative to control

First: B1
Second: B2
The “Normalized Luc. act., normalized to control” value of the first is higher: 1.2 for the first, 0.9 for the second.

First: B3
Second: B4
The “Normalized Luc. act., normalized to control” value of the first is lower: 0.8 for the first, 0.9 for the second.

Same assay, conditions: Table 6d; luciferase activity relative to control (control = 1.00)

Going from B1 to B2, the “Results of assays of transcription factor (+/- ligand) with hPPARg1” value falls from 1.18 to 0.85.

Compared with B3, B4 is higher in “Results of assays of transcription factor (+/- ligand) with hPPARg1” value: 0.82 for the first, 0.88 for the second.
